Assay results from FireProtDB (doi:10.1529/biophysj.104.051052).

Settings: Canavalia ensiformis, pH 7, Fluorescence, HEPES 25 mM, CaCl2 15 mM, reversible: yes, whole UniProt chain shown; for denaturant m value: GdnHCl

B1: Concanavalin-A wild type, P02866 (protein)
chain: MAISKKSSLFLPIFTFITMFLMVVNKVSSSTHETNALHFMFNQFSKDQKDLILQGDATTGTDGNLELTRVSSNGSPQGSSVGRALFYAPVHIWESSAVVASFEATFTFLIKSPDSHPADGIAFFISNIDSSIPSGSTGRLLGLFPDANVIRNSTTIDFNAAYNADTIVAVELDTYPNTDIGDPSYPHIGIDIKSVRSKKTAKWNMQNGKVGTAHIIYNSVDKRLSAVVSYPNADSATVSYDVDLDNVLPEWVRVGLSASTGLYKETNTILSWSFTSKLKSNEIPDIATVV
- denaturant m value (7 °C): 1.3 kcal/mol/M
- denaturant m value (12 °C): 1.6 kcal/mol/M
- denaturant m value (18 °C): 1.8 kcal/mol/M
- denaturant m value (27 °C): 2.1 kcal/mol/M
- denaturant m value (30 °C): 2.3 kcal/mol/M
- denaturant m value (39 °C): 2.2 kcal/mol/M
- Tm (Thermal): 98.5 °C
- heat capacity change of unfolding (Thermal): 4.2 kcal/mol/K
- unfolding enthalpy (van 't Hoff) (Thermal): 179 kcal/mol
